Laboratory results from patent publication US20250366499A1, “Flavin-Containing Monoamine Oxidase MAO6sh Capable of Degrading Biogenic Amines and Application Thereof” (Jiangnan University, priority 2024, published 2025).
Where “and” joins values, the source holds several entries; their conditions need not be identical. Equal entries are not always repeated.

Columns and labels:
[1] = Application in commercially available low-salt soy sauce; format: biochemical; details: enzyme 200 ug/ml, 25° C., 24-48 h
Protocol: The recombinant monoamine oxidase MAO6^sh prepared in Example 3 was subjected to ultrafiltration and concentration to adjust the protein concentration to 200 ug/ml, and then added to the commercially available low-salt soy sauce for standing at a room temperature (25° C.) for 24-48 h.

[2] = Degradation in commercially available Huangjiu, spermine; format: biochemical; details: Huangjiu 18% vol, enzyme 200 μg/ml added 1:1, about 28° C., 48 h
Protocol: (§1) The content of biogenic amines was detected by high-performance liquid chromatography (HPLC).
(§2) The recombinant monoamine oxidase MAO6^sh prepared in Example 3 was subjected to ultrafiltration and concentration to adjust the protein concentration to 200 μg/ml, and then added to the Huangjiu in a ratio of 1:1 for reacting at a room temperature of about 28° C. for 48 h. The control group was commercially available Huangjiu (18% vol) without enzymes, and the total content of biogenic amines in the control group was 136.2 mg·L^−1.

[3] = Degradation in commercially available Huangjiu, spermidine; format: biochemical; details: Huangjiu 18% vol, enzyme 200 μg/ml added 1:1, about 28° C., 48 h
Protocol: as §1, §2

[4] = Degradation in commercially available Huangjiu, tyramine; format: biochemical; details: Huangjiu 18% vol, enzyme 200 μg/ml added 1:1, about 28° C., 48 h
Protocol: as §1, §2

[5] = Enzyme activity measurement (peroxidase-coupled, A510), substrate cadaverine; format: biochemical
Protocol: (§3) Enzyme activity measurement: The activity of a biogenic amine oxidase was measured by an indirect measurement method of […]. The amine oxidase acts on biogenic amines to degrade the biogenic amines into corresponding aldehydes and hydrogen peroxide. Under the presence of peroxidase, hydrogen peroxide reacts with 4-aminoantipyrine and 2,4,6-tribromo-3-hydroxybenzoic acid to generate a quinone dye. The product has a maximum absorption value at 510 nm, and the magnitude of the activity of the amine oxidase was linearly related to the color intensity of the product within a certain range, so that the activity of the amine oxidase can be measured by measuring the change in A510.
(§4) The reaction was carried out in a 96-well plate. The reaction system included 20 μl of enzyme solution (80 ug·mL^−1) and 100 μl of prepared solution (including 200 mmol·L^−1 potassium phosphate buffer with a pH of 7.6, 1.5 mmol·L^−1 4-aminoantipyrine, and 1 mmol·L^−1 2,4,6-tribromo-3-hydroxybenzoic acid). To initiate the reaction, 20 μL of biogenic amine solution (10 mmol·L^−1) and 70 µL of peroxidase (1.4 mg·mL^−1) were added, the absorbance was measured at 510 nm, the reaction temperature was 37° C., and the reaction time was 10 min. The change in absorbance of 0.01 per minute was defined as one enzyme activity unit (U).
(§5) Definition of specific activity of monoamine oxidase (U/mg): The enzyme activity per milligram of protein.
(§6) The catalytic ability of the monoamine oxidase MAO6^sh before and after purification was measured respectively using a single biogenic amine as a substrate. Systems containing putrescine, tyramine, histamine, cadaverine, phenylethylamine, tryptamine, spermine or spermidine with a concentration of 10 mmol/L were prepared respectively, the pure enzyme in Example 3 was added to the reaction system after adjusting the protein concentration (80 ug/mL, 20 uL) for reacting for 30 min at 37° C., and the results were shown in
(§7) After the enzyme solution purified in Example 3 was respectively incubated for 30 min in water baths at 15° C., 30° C., 35° C., 40° C., 45° C., 50° C., 55° C. and 60° C., the enzyme activity was measured according to the standard enzyme reaction system to determine the stable temperature range thereof, and the results were shown in FIG. 6. […] When the incubation temperature was 50° C., the residual enzyme activity for putrescine was 36.66%, the residual enzyme activity for cadaverine was 30.55%, and the residual enzyme activity for tryptamine was 26.34%.
(§8) The reaction system was the same as that of Example 5, except that ethanol with different concentrations (0-20% vol) was added respectively. […] When the concentration of ethanol was about 15 vol %, the relative enzyme activities of the monoamine oxidase MAO6^sh for putrescine, tryptamine and cadaverine were 9.57%, 11.21% and 13.67% respectively (FIG. 9).

[6] = Application in table vinegar; format: biochemical; details: enzyme 200 μg/ml, 25° C., 24-48 h
Protocol: The recombinant monoamine oxidase MAO6^sh prepared in Example 3 was subjected to ultrafiltration and concentration to adjust the protein concentration to 200 μg/ml, and then added to the commercially available table vinegar for standing at a room temperature (25° C.) for 24-48 h.

[7] = Enzyme activity measurement (peroxidase-coupled, A510), substrate tryptamine; format: biochemical
Protocol: as §3, §4, §5, §6, §7, §8

[8] = Degradation in commercially available Huangjiu, putrescine; format: biochemical; details: Huangjiu 18% vol, enzyme 200 μg/ml added 1:1, about 28° C., 48 h
Protocol: as §1, §2

[9] = Application in fermented sausage; format: biochemical; details: enzyme 200 μg/ml added to raw material, versus sausage without enzyme
Protocol: 65-80% of lean meat and 20-35% of fat meat were taken by mass and cleaned, and bones, tendons, myolemma, lymph nodes, blood vessels, lesions and injury sites were removed. The fat meat and the lean meat were separated and cut into 4-5 cm meat pieces. The lean meat and about 5-8% of flake ice were placed in a chopper and chopped for 1-3 min. Based on the mass of pork, […] of sodium nitrite, 2-3% of table salt, 0.2-0.3% of compound phosphate, and 0.05-0.06% of sodium ascorbate were added. Spices, pepper, garlic, chili, and nutmeg were 0.2-0.3% of the raw meat. The recombinant monoamine oxidase MAO6^sh prepared in Example 3 was subjected to ultrafiltration and concentration to adjust the protein concentration to 200 μg/ml, and then added to the sausage raw material for chopping for 1-2 min, and then, the fat meat and about 5-8% of flake ice were added for chopping for 4-6 min. The sausage was pickled and then poured into the sausage casing. The sausage poured into the sausage casing was pickled at 4° C. for 12 h, then heated to 30° C., fermented until the pH decreased to about 5.1, and matured at 14-16° C. for 1-10 d.

[10] = Enzyme activity measurement (peroxidase-coupled, A510), substrate putrescine; format: biochemical
Protocol: as §3, §4, §5, §6, §7
The reaction system was the same as that of Example 5, except that the pH of the reaction system was respectively adjusted to 3.0-9.0, the enzyme activity of the recombinant enzyme MAO6^sh under different pH reaction conditions was measured, the relative enzyme activity at each temperature was calculated respectively using a single biogenic amine as a substrate at the highest enzyme activity of 100%, and the results were shown in FIG. 7. When putrescine was used as a substrate, the optimal pH for the MAO6^sh was about 5.0-6.0. When the pH was within the range of 3.0-5.0, the enzyme activity […] rapidly with the increase of the pH. However, under alkaline conditions, the tolerance was stronger than the acid tolerance.
as §8

[11] = Degradation in commercially available Huangjiu, histamine; format: biochemical; details: Huangjiu 18% vol, enzyme 200 μg/ml added 1:1, about 28° C., 48 h
Protocol: as §1, §2

[12] = Degradation in commercially available Huangjiu, total biogenic amines; format: biochemical; details: Huangjiu 18% vol (control 136.2 mg/L total), enzyme 200 μg/ml added 1:1, about 28° C., 48 h
Protocol: as §1, §2

[13] = format: biochemical
Protocol: as §3
The reaction was carried out in a 96-well plate. […] To initiate the reaction, 20 μL of biogenic amine solution (10 mmol·L^−1) and 70 µL of peroxidase (1.4 mg·mL^−1) were added, the absorbance was measured at 510 nm, the reaction temperature was 37° C., and the reaction time was 10 min. The change in absorbance of 0.01 per minute was defined as one enzyme activity unit (U).
The catalytic ability of the monoamine oxidase MAO6^sh before and after purification was measured respectively using a single biogenic amine as a substrate. […]

[14] = Degradation in commercially available Huangjiu, phenylethylamine; format: biochemical; details: Huangjiu 18% vol, enzyme 200 μg/ml added 1:1, about 28° C., 48 h
Protocol: as §1, §2

[15] = Degradation in commercially available Huangjiu, tryptamine; format: biochemical; details: Huangjiu 18% vol, enzyme 200 μg/ml added 1:1, about 28° C., 48 h
Protocol: as §1, §2

[16] = Degradation in commercially available Huangjiu, cadaverine; format: biochemical; details: Huangjiu 18% vol, enzyme 200 μg/ml added 1:1, about 28° C., 48 h
Protocol: as §1, §2

[17] = crude enzyme solution, induction at 16° C.
[18] = pure enzyme 80 ug/mL, 10 mmol/L substrate, 37° C., 30 min

B1: MAO6^sh: recombinant flavin-containing monoamine oxidase from Saccharopolyspora hirsuta, amino acid sequence SEQ ID NO. 1, expressed in E. coli BL21/pET28a-MAO6^sh (protein, listed as Saccharopolyspora hirsuta)
chain: MDSYDVVVIGAGFAGLVAARELALRGHAVVVLEARDRIGGRTWTDERLGRRLEMGGTWVHWLQPHVWSEITRYDQRIEPSPSSQAVHWVAGGSAHRGSPEEFDALISPGMDQLARDSRAWFPLPYEPLHRADLDQVDHLSVADYFAGLDLNPVEREVTEGVWAEHFNGPAAVSGYTQAMRWCAAASGNWQLLHQATSGYRLTGGTAALAGAIAADGGAELHLGSVVASVSQDSGGATVSTTDGTSVRARRVICTLPLNVLGTVDFQPALPATKLAASAERTASQGLKTWIRVRGEVAPFTAYAPDSHDLTFVRPEYTVEGDTLLVAFGTRAADLAPDDVDGVARALRVWRDDLEVLEVSGHDWMTDDFSRETWPMQRPEQLTRYLAALQEPHGVVRFAGSDLATGWAGFIDGAVESGLRASRAVQDALRGPRG
In the case of B1, the “reduction of content of biogenic amines” value [1] is reported as “effectively reduce the content of biogenic amines”, the “Degradation rate, Spermine” value [2] is reported as 7.75% and the “Degradation rate, Spermidine” value [3] is reported as 8.51%. The “Degradation rate, Tyramine” value [4] was 19.31%, the “residual enzyme activity for cadaverine” value ([5]; 30 min incubation at 50° C.) was 30.55% and the “specific enzyme activity for cadaverine” value [5, 17] was 14.70 U/mg. The “relative enzyme activity for cadaverine” value ([5]; ethanol about 15 vol %) was 13.67%, the “relative enzyme activity for cadaverine” value ([5]; ethanol lower than 10% vol) was 35.78% and the “specific enzyme activity for cadaverine” value [5, 18] was 146.05 U/mg. The “reduction of content of biogenic amines” value [6] was “effectively reduce the content of biogenic amines”, the “residual enzyme activity for tryptamine” value ([7]; 30 min incubation at 50° C.) was 26.34% and the “specific enzyme activity for tryptamine” value [7, 17] was 13.94 U/mg. The “relative enzyme activity for tryptamine” value ([7]; ethanol about 15 vol %) was 11.21%, the “relative enzyme activity for tryptamine” value ([7]; ethanol lower than 10% vol) was 30.27% and the “specific enzyme activity for tryptamine” value [7, 18] was 149.16 U/mg. The “Degradation rate, Putrescine” value [8] was 33.76%, the “reduction of content of biogenic amines” value [9] was “effectively reduce the content of biogenic amines” and the “residual enzyme activity for putrescine” value ([10]; 30 min incubation at 50° C.) was 36.66%. For the same molecule, the “specific enzyme activity for putrescine” value [10, 17] was 15.66 U/mg, the “relative enzyme activity for putrescine” value ([10]; ethanol about 15 vol %) was 9.57% and the “relative enzyme activity for putrescine” value ([10]; ethanol lower than 10% vol) was 29.44%. For the same molecule, the “specific enzyme activity for putrescine” value [10, 18] was 161.59 U/mg, the “optimal pH” value ([10]; putrescine as substrate, reaction pH 3.0-9.0) was 5.0-6.0 and the “Degradation rate, Histamine” value [11] was 21.44%. For the same molecule, the “degradation rate for total biogenic amines” value [12] was 25.56%, the residual enzyme activity ([13]; 30 min incubation, incubation temperature exceeds 45° C.) was “about 30%” and the optimal temperature ([13]; most suitable substrate, reaction temperatures 25-60° C.) was 45-50 °C. For the same molecule, the “Degradation rate, Phenylethylamine” value [14] was 5.78%, the “Degradation rate, Tryptamine” value [15] was 54.07% and 54.06% and the “Degradation rate, Tryptamine” value ([15]; listed as recombinant enzyme) was 54.07%. The “Degradation rate, Cadaverine” value [16] was 43.78%.
